The values below come from the supplement of paper PMC9170038.

The data set has as its system MS2 coat protein. Nature of the data set: apparent KD of MS2 coat protein; higher = weaker reporter binding. To be noted: Eterna round: R107. A digest of the protocol:
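SNAP-549-labelled MS2 coat protein was titrated onto designed RNA switches that had been transcribed on-chip from Illumina sequencing clusters. Amounts doubled from 0.7 or 1.5 nM to 3 µM in 100 mM Tris-HCl pH 7.5, 80 mM KCl, 4 mM MgCl2, with constant ligand or without. Apparent KD is the median per design of normalised cluster binding-curve fits.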

[1] abbreviates: input ligand: theophylline 20 uM.
[2] abbreviates: input ligand: theophylline 2 mM.
The mark [3] stands for this setting: input ligand: tryptophan 2.4 mM.

On to “AGCUCGCAUCCUCUAGCGUCAAAGACGCGUCGAGGACCGGUACGGCCGCCACUCGACUUGAGGAACACCCAAGUCCUAGCGAGCA [TrypAX 12 #SwitchBubble #AlternativeMS2 #MS2Late #CuTurnoff]”, for which the “apparent KD of MS2 coat protein” value is, setting by setting: (input ligand: arginine 13.2 mM) 62.2 nM; (input ligand: none) 188 nM; under setting [1], 217 nM; under setting [2], 306 nM; under setting [3], 290 nM.

With “AGCUCGCGUCCUCAAGCGUCAAAGACGCGUCGAGGACCGGUACGGCCGCCACUCGACCUGAGGAUCACCCAGGUUUAAGCGAGCA [TrypAX 6 #SwitchBubble #AlternativeMS2 #MS2Late #CuTurnoff]”, the “apparent KD of MS2 coat protein” value is, setting by setting: (input ligand: arginine 13.2 mM) 12.7 nM; (input ligand: none) 17.8 nM; under setting [1], 20 nM; under setting [2], 18.1 nM; under setting [3], 115 nM.

Turning to “AGGAAACAACAUGAGGAUCACCCAUGUGAUACCAGUAUCAAAAGAUACCCUUGGCAGCACACAUGACAUGAGGAUCACCCAUGUA [AstrosSSTheA#2]”, the “apparent KD of MS2 coat protein” value worked out at 33.2 nM (input ligand: arginine 13.2 mM), 52.4 nM under setting [1] and 74.4 nM under setting [3].

Regarding “AGGACAUCGAGAAGGAGCGCAUCCAAACCACACAUGAGGAUCACCCAUGUAUAAAUAUGCAUGCAGGUAGGUCGCUCGGCGUCUU [Leanerin]”, the “apparent KD of MS2 coat protein” value by setting is: (input ligand: arginine 13.2 mM) 57.5 nM; (input ligand: none) 99 nM; under setting [1], 121 nM; under setting [2], 85.7 nM; under setting [3], 87.4 nM.

Take “AGGUGGCGCGGAAGGAGCGAGUUUGCCUAUUACAUGAGGAUCACCCAUGUGGGUAAUGGGACUCAGGUAGGUCGCCGUUGUCGCU [Same State Arginine B GF 27]”: the “apparent KD of MS2 coat protein” value stood at 35.6 nM (input ligand: arginine 13.2 mM); 47.9 nM (input ligand: none); 91.5 nM under setting [1]; 68.8 nM under setting [2]; 61.5 nM under setting [3].

As for “AGGUGGGUCUGAAGGAGCGCGAUAACAUGAGGAUCACCCAUGUUAAAUGGUACAUGAUACUCGCAGGUAGGUCGCAGUAAAACCA [Same State Arginine B GF 12]”, the “apparent KD of MS2 coat protein” value is, setting by setting: (input ligand: arginine 13.2 mM) 25 nM; (input ligand: none) 84.4 nM; under setting [1], 73.1 nM; under setting [2], 93.8 nM; under setting [3], 53.1 nM.

In the case of “AGUAAUCUAUCAGAUACCAGACCCUCUUUAACAUGAGGAUCACCCAUGUCUAUGUUCUACGUCCCUUGGCAGCUGUAAAUGAUAA [JR_SSTheophyB_Sub002]”, the “apparent KD of MS2 coat protein” value came out at 34.9 nM (input ligand: arginine 13.2 mM), 80 nM under setting [1] and 57.7 nM under setting [3].

Consider “AGUCUUAAUGGAAGGAGCGCAGUCAUAACAUGAGGAUCACCCAUGUCGAGGUGAGGGUCAUUGCAGGUAGGUCGCCAUACUAAGA [Same State - Arginine B (Freestyle 3)]”, for which the “apparent KD of MS2 coat protein” value came to 125 nM (input ligand: arginine 13.2 mM); 199 nM (input ligand: none); 220 nM under setting [1]; 265 nM under setting [2]; 245 nM under setting [3].

Consider “AGUGACUACAUCUGGAAUUAAGGUAGGGAAGGAGCGCGGUAAGACGCAGGUAGGUCGCCCUACAUGAGGAUCACCCAUGUGAUGU [XARG-A 28]”, for which the “apparent KD of MS2 coat protein” value (input ligand: arginine 13.2 mM) was 75.5 nM; the “apparent KD of MS2 coat protein” value (input ligand: none) was determined as 354 nM; the “apparent KD of MS2 coat protein” value under setting [1] is 264 nM; the “apparent KD of MS2 coat protein” value under setting [2] came out at 331 nM; the “apparent KD of MS2 coat protein” value under setting [3] was 232 nM.

For “AGUGGGUGUUAUGAUACCAGCGUAAUACACAACAUGAGGAUCACCCAUGUGGAGCCUCGCCGCCCUUGGCAGCAUUGGGCCCGCA [theeternabot_sameState_MS2_Theo_B_4]”, the “apparent KD of MS2 coat protein” value by setting is: (input ligand: arginine 13.2 mM) 115 nM; under setting [1], 237 nM; under setting [3], 223 nM.

Turning to “AUAAAUAAUAAAUAUAAUAAAGUGGGUGAACGAGGACCGGUACGGCCGCCACUCGGACAUGAGGAUCACCCAUGUCCAUGUGAAA [AstrosExtTry#3]”, the “apparent KD of MS2 coat protein” value was determined as 9.94 nM (input ligand: arginine 13.2 mM); 17.3 nM (input ligand: none); 19.1 nM under setting [1]; 19.3 nM under setting [2]; 40.1 nM under setting [3].

Regarding “AUAACAGUGUCGGCCGCCACUAGAACACAUGAGGAUCACCCAUGUGGUGGUACCUCCUAAGACGAUAGGACCGGGACCCAUCUAC [theeternabot_exclusion_MS2_Trp_B_12]”, the “apparent KD of MS2 coat protein” value amounted to 50.4 nM (input ligand: arginine 13.2 mM), 108 nM under setting [1] and 143 nM under setting [2].

For “AUACAUGAGGAUCACCCAUGUCAUUCAGAAGGAGCGUCAUUUUAGACAGGUAGGUCGCUGAUAGUAUUUUUAUACUUUAUGUUUA [JR_SSArginiA_Sub015]”, the “apparent KD of MS2 coat protein” value turned out to be 19.5 nM (input ligand: arginine 13.2 mM); 20.3 nM (input ligand: none); 29.3 nM under setting [1]; 23.3 nM under setting [2]; 21.6 nM under setting [3].

Consider “AUAUAUACAUGAGGAUCACCCAUGUUAUUUCGAGGACCGGUACGGCCGCCACUCGAUAGAGUAGAAGUAAAUUUUAAUUCAUGUA [JR_SSTryptoA_Sub008]”, for which the “apparent KD of MS2 coat protein” value (input ligand: arginine 13.2 mM) was found to be 13.9 nM, the “apparent KD of MS2 coat protein” value under setting [1] turned out to be 18.7 nM and the “apparent KD of MS2 coat protein” value under setting [2] was determined as 16.8 nM.

On to “AUAUAUAUAUAGAAAUAUAUAUAUAUGUAACGAGGACCGGUACGGCCGCCACUCGUGCCGGUGAUAACAUGAGGAUCACCCAUGU [Ex_TrypA - Every engine approves!]”, for which the “apparent KD of MS2 coat protein” value runs as follows: (input ligand: arginine 13.2 mM) 19.8 nM; (input ligand: none) 16 nM; under setting [1], 20.9 nM; under setting [2], 20.3 nM; under setting [3], 20 nM.

On to “AUAUCUUCCACGGCCGCCACUGAAUGGUGCCCAAGGUCGAUCGCAGACAUGAGGAUCACCCAUGUCAGGACCGGGUGGUACUACG [theeternabot_exclusion_MS2_Trp_B_23]”, for which the “apparent KD of MS2 coat protein” value runs as follows: (input ligand: arginine 13.2 mM) 16.1 nM; under setting [1], 16.5 nM; under setting [2], 15.7 nM.

Turning to “AUAUGAUCAUACGAUACCAGAAAUGGUAUUCCUUUAUUUCUUACAUGAGGAUCACCCAUGUUCCCUUGGCAGCGUAUGAUCAUAU [ETHB #3]”, the “apparent KD of MS2 coat protein” value reads like this: (input ligand: arginine 13.2 mM) 125 nM; under setting [1], 327 nM; under setting [3], 303 nM.
